The values that follow come from patent publication US20260242735A1 (UNIVERSIT T BASEL, published 2026).

One assay has as its target human CD33 C41A (human, UniProt P20138 18-364). The assay is described as follows: alanine scan, flow cytometry.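 Further: HEK293-T cells transiently expressing single-residue alanine mutants of CD33 (alanine swapped to serine), antibody binding read by fluorescence in duplicate, background-subtracted, expressed relative to wild-type CD33.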
For the next assay, the target named is human CD33 P48L (human, UniProt P20138 18-364). Put plainly: flow cytometry, transfected cells. A general note: A flow cytometer gives signals particle by particle.
For a further assay, the target named is human CD33 P48K (human, UniProt P20138 18-364). The assay is described as follows: flow cytometry, transfected cells.
Another assay has as its target human CD33 P48S (human, UniProt P20138 18-364). Put plainly: flow cytometry, transfected cells.
The next assay has as its target human CD33 Y50R (human, UniProt P20138 18-364). Put plainly: flow cytometry, transfected cells.
Another assay has as its target human CD33 V214A (human, UniProt P20138 18-364). The assay is described as follows: alanine scan, flow cytometry.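 Further: HEK293-T cells transiently expressing single-residue alanine mutants of CD33 (alanine swapped to serine), antibody binding read by fluorescence in duplicate, background-subtracted, expressed relative to wild-type CD33.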
For the next assay, the target named is human CD33 G218A (human, UniProt P20138 18-364). Put plainly: alanine scan, flow cytometry.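 Further: HEK293-T cells transiently expressing single-residue alanine mutants of CD33 (alanine swapped to serine), antibody binding read by fluorescence in duplicate, background-subtracted, expressed relative to wild-type CD33.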
The target in the next assay is human CD33 T222A (human, UniProt P20138 18-364). The assay is described as follows: alanine scan, flow cytometry.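 Further: HEK293-T cells transiently expressing single-residue alanine mutants of CD33 (alanine swapped to serine), antibody binding read by fluorescence in duplicate, background-subtracted, expressed relative to wild-type CD33.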
In the next assay the target is human CD33 P238A (human, UniProt P20138 18-364). Put plainly: alanine scan, flow cytometry.
Another assay deals with human CD33 T240A (human, UniProt P20138 18-364). Put plainly: alanine scan, flow cytometry.
The next assay addresses human CD33 D246A (human, UniProt P20138 18-364). The assay is described as follows: alanine scan, flow cytometry.
The target of another assay is human CD33 Q251A (human, UniProt P20138 18-364). The assay is described as follows: alanine scan, flow cytometry.
A further assay has as its target human CD33 T253A (human, UniProt P20138 18-364). Put plainly: alanine scan, flow cytometry.
The next assay deals with human CD33 A255S (human, UniProt P20138 18-364). The assay is described as follows: alanine scan, flow cytometry.
Another assay deals with human CD33 V257A (human, UniProt P20138 18-364). The assay is described as follows: alanine scan, flow cytometry.
The next assay has as its target human CD33 H259A (human, UniProt P20138 18-364). Put plainly: alanine scan, flow cytometry.
Another assay has as its target human CD33 G264A (human, UniProt P20138 18-364). Put plainly: alanine scan, flow cytometry.
The target of the next assay is human CD33 A265S (human, UniProt P20138 18-364). Put plainly: alanine scan, flow cytometry.
In another assay the target is human CD33 G266A (human, UniProt P20138 18-364). Put plainly: alanine scan, flow cytometry.
The target in a further assay is human CD33 V267A (human, UniProt P20138 18-364). Put plainly: alanine scan, flow cytometry.
In the next assay the target is human CD33 T268A (human, UniProt P20138 18-364). Put plainly: alanine scan, flow cytometry.
The next assay concerns the target human CD33 A269S (human, UniProt P20138 18-364). The assay is described as follows: alanine scan, flow cytometry.
For the next assay, the target named is human CD33 Y49G (human, UniProt P20138 18-364). The assay is described as follows: flow cytometry, transfected cells.
The next assay deals with human CD33 Y49I (human, UniProt P20138 18-364). The assay is described as follows: flow cytometry, transfected cells.
For the next assay, the target named is human CD33 K52Y (human, UniProt P20138 18-364). The assay is described as follows: flow cytometry, transfected cells.
In the next assay the target is human CD33 K52T (human, UniProt P20138 18-364). The assay is described as follows: flow cytometry, transfected cells.
The target in a further assay is human CD33 K52I (human, UniProt P20138 18-364). The assay is described as follows: flow cytometry, transfected cells.
For the next assay, the target named is human CD33 S131M (human, UniProt P20138 18-364). Put plainly: flow cytometry, transfected cells.
For a further assay, the target named is human CD33 S131W (human, UniProt P20138 18-364). The assay is described as follows: flow cytometry, transfected cells.
A further assay deals with human CD33 P132S (human, UniProt P20138 18-364). Put plainly: flow cytometry, transfected cells.
The target of the next assay is human CD33 P132F (human, UniProt P20138 18-364). The assay is described as follows: flow cytometry, transfected cells.
Another assay deals with human CD33 P132K (human, UniProt P20138 18-364). The assay is described as follows: flow cytometry, transfected cells.
The target in another assay is human CD33 P132Q (human, UniProt P20138 18-364). The assay is described as follows: flow cytometry, transfected cells.
human CD33 P132Q, sequence (P20138 18-364 P132Q limits assumed): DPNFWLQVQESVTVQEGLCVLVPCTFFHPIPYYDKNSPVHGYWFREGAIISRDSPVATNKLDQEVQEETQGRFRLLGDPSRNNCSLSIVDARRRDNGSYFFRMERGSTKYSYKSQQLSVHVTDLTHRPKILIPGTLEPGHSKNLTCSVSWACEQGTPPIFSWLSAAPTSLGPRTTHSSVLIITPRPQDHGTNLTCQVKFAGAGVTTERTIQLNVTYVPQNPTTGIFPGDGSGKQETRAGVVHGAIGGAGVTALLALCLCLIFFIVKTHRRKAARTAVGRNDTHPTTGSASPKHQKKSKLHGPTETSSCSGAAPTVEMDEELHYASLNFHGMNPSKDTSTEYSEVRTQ

human CD33 V214A, sequence (P20138 18-364 V214A limits assumed): as the sequence (P20138 18-364 P132Q limits assumed) above, with Q115P, V197A counted along it
human CD33 D246A, sequence (P20138 18-364 D246A limits assumed): as the sequence (P20138 18-364 P132Q limits assumed) above, with Q115P, D229A counted along it
human CD33 G266A, sequence (P20138 18-364 G266A limits assumed): as the sequence (P20138 18-364 P132Q limits assumed) above, with Q115P, G249A counted along it
human CD33 V257A, sequence (P20138 18-364 V257A limits assumed): as the sequence (P20138 18-364 P132Q limits assumed) above, with Q115P, V240A counted along it
human CD33 P238A, sequence (P20138 18-364 P238A limits assumed): as the sequence (P20138 18-364 P132Q limits assumed) above, with Q115P, P221A counted along it
human CD33 T268A, sequence (P20138 18-364 T268A limits assumed): as the sequence (P20138 18-364 P132Q limits assumed) above, with Q115P, T251A counted along it
human CD33 G264A, sequence (P20138 18-364 G264A limits assumed): as the sequence (P20138 18-364 P132Q limits assumed) above, with Q115P, G247A counted along it
human CD33 G218A, sequence (P20138 18-364 G218A limits assumed): as the sequence (P20138 18-364 P132Q limits assumed) above, with Q115P, G201A counted along it
human CD33 A255S, sequence (P20138 18-364 A255S limits assumed): as the sequence (P20138 18-364 P132Q limits assumed) above, with Q115P, A238S counted along it
human CD33 H259A, sequence (P20138 18-364 H259A limits assumed): as the sequence (P20138 18-364 P132Q limits assumed) above, with Q115P, H242A counted along it
human CD33 T222A, sequence (P20138 18-364 T222A limits assumed): as the sequence (P20138 18-364 P132Q limits assumed) above, with Q115P, T205A counted along it
human CD33 C41A, sequence (P20138 18-364 C41A limits assumed): as the sequence (P20138 18-364 P132Q limits assumed) above, with C24A, Q115P counted along it
human CD33 V267A, sequence (P20138 18-364 V267A limits assumed): as the sequence (P20138 18-364 P132Q limits assumed) above, with Q115P, V250A counted along it
human CD33 A265S, sequence (P20138 18-364 A265S limits assumed): as the sequence (P20138 18-364 P132Q limits assumed) above, with Q115P, A248S counted along it
human CD33 T253A, sequence (P20138 18-364 T253A limits assumed): as the sequence (P20138 18-364 P132Q limits assumed) above, with Q115P, T236A counted along it
human CD33 A269S, sequence (P20138 18-364 A269S limits assumed): as the sequence (P20138 18-364 P132Q limits assumed) above, with Q115P, A252S counted along it
human CD33 Q251A, sequence (P20138 18-364 Q251A limits assumed): as the sequence (P20138 18-364 P132Q limits assumed) above, with Q115P, Q234A counted along it
human CD33 T240A, sequence (P20138 18-364 T240A limits assumed): as the sequence (P20138 18-364 P132Q limits assumed) above, with Q115P, T223A counted along it
human CD33 P48L, sequence (P20138 18-364 P48L limits assumed): as the sequence (P20138 18-364 P132Q limits assumed) above, with P31L, Q115P counted along it
human CD33 P132S, sequence (P20138 18-364 P132S limits assumed): as the sequence (P20138 18-364 P132Q limits assumed) above, with Q115S counted along it
human CD33 P132K, sequence (P20138 18-364 P132K limits assumed): as the sequence (P20138 18-364 P132Q limits assumed) above, with Q115K counted along it
human CD33 K52Y, sequence (P20138 18-364 K52Y limits assumed): as the sequence (P20138 18-364 P132Q limits assumed) above, with K35Y, Q115P counted along it
human CD33 S131M, sequence (P20138 18-364 S131M limits assumed): as the sequence (P20138 18-364 P132Q limits assumed) above, with S114M, Q115P counted along it
human CD33 P48S, sequence (P20138 18-364 P48S limits assumed): as the sequence (P20138 18-364 P132Q limits assumed) above, with P31S, Q115P counted along it
human CD33 K52I, sequence (P20138 18-364 K52I limits assumed): as the sequence (P20138 18-364 P132Q limits assumed) above, with K35I, Q115P counted along it
human CD33 Y49G, sequence (P20138 18-364 Y49G limits assumed): as the sequence (P20138 18-364 P132Q limits assumed) above, with Y32G, Q115P counted along it
human CD33 S131W, sequence (P20138 18-364 S131W limits assumed): as the sequence (P20138 18-364 P132Q limits assumed) above, with S114W, Q115P counted along it
human CD33 P48K, sequence (P20138 18-364 P48K limits assumed): as the sequence (P20138 18-364 P132Q limits assumed) above, with P31K, Q115P counted along it
human CD33 K52T, sequence (P20138 18-364 K52T limits assumed): as the sequence (P20138 18-364 P132Q limits assumed) above, with K35T, Q115P counted along it
human CD33 P132F, sequence (P20138 18-364 P132F limits assumed): as the sequence (P20138 18-364 P132Q limits assumed) above, with Q115F counted along it
human CD33 Y50R, sequence (P20138 18-364 Y50R limits assumed): as the sequence (P20138 18-364 P132Q limits assumed) above, with Y33R, Q115P counted along it
human CD33 Y49I, sequence (P20138 18-364 Y49I limits assumed): as the sequence (P20138 18-364 P132Q limits assumed) above, with Y32I, Q115P counted along it

B1: Refmab #4 (antibody, V domains shown)
VH: QVQLVQSGAEVKKPGESVKVSCKASGYTFTNYGMNWVKQAPGQGLEWMGWINTYTGEPTYADKFQGRVTMTTDTSTSTAYMEIRNLGGDDTAVYYCARWSWSDGYYVYFDYWGQGTSVTVSS
VL: DIVMTQSPDSLTVSLGERTTINCKSSQSVLDSSTNKNSLAWYQQKPGQPPKLLLSWASTRESGIPDRFSGSGSGTDFTLTIDSPQPEDSATYYCQQSAHFPITFGQGTRLEIK
notes: Full-length format is human IgG1 Fc silent (PG-LALA); The alanine scan used IgG or Fab
For B1, the “Mean % WT Binding” value with human CD33 C41A amounted to 9.8 % WT.

B2: Refmab #4 (antibody, human IgG1, V domains shown)
VH: QVQLVQSGAEVKKPGESVKVSCKASGYTFTNYGMNWVKQAPGQGLEWMGWINTYTGEPTYADKFQGRVTMTTDTSTSTAYMEIRNLGGDDTAVYYCARWSWSDGYYVYFDYWGQGTSVTVSS
VL: DIVMTQSPDSLTVSLGERTTINCKSSQSVLDSSTNKNSLAWYQQKPGQPPKLLLSWASTRESGIPDRFSGSGSGTDFTLTIDSPQPEDSATYYCQQSAHFPITFGQGTRLEIK
For the molecule B2, the binding result with human CD33 P48L, with human CD33 P48K, with human CD33 P48S and in the assay with human CD33 Y50R was “no binding (tested: below 20%)” each time.

B3: Refmab #5 (antibody, V domains shown)
VH: QVQLVQSGAEVKKPGASVKVSCKASGYTFTNYDINWVRQAPGQGLEWIGWIYPGDGSTKYNEKFKAKATLTADTSTSTAYMELRSLRSDDTAVYYCASGYEDAMDYWGQGTTVTVSS
VL: DIQMTQSPSSLSASVGDRVTINCKASQDINSYLSWFQQKPGKAPKTLIYRANRLVDGVPSRFSGSGSGQDYTLTISSLQPEDFATYYCLQYDEFPLTFGGGTKVEIK
notes: Full-length format is human IgG1 Fc silent (PG-LALA); also made as Fab; The alanine scan used IgG or Fab
B3: the “Mean % WT Binding” value amounted to 127 % WT binding with human CD33 V214A; 102 % WT binding in the assay with human CD33 G218A; 111 % WT binding with human CD33 T222A; 157 % WT binding with human CD33 P238A; 96.9 % WT binding with human CD33 T240A; 115 % WT binding with human CD33 D246A. In addition, the “Mean % WT Binding” value is 94.7 % WT binding in the assay with human CD33 Q251A; 94.6 % WT binding in the assay with human CD33 T253A; 88.3 % WT binding with human CD33 A255S; 134 % WT binding with human CD33 V257A; 94.5 % WT binding in the assay with human CD33 H259A; 94.4 % WT binding with human CD33 G264A. The “Mean % WT Binding” value in the assay with human CD33 A265S was 99.7 % WT binding; with human CD33 G266A it was 111 % WT binding; with human CD33 V267A, 95.2 % WT binding; with human CD33 T268A, 84.7 % WT binding; in the assay with human CD33 A269S, 124 % WT binding.

B4: Refmab #5 (antibody, human IgG1, V domains shown)
VH: QVQLVQSGAEVKKPGASVKVSCKASGYTFTNYDINWVRQAPGQGLEWIGWIYPGDGSTKYNEKFKAKATLTADTSTSTAYMELRSLRSDDTAVYYCASGYEDAMDYWGQGTTVTVSS
VL: DIQMTQSPSSLSASVGDRVTINCKASQDINSYLSWFQQKPGKAPKTLIYRANRLVDGVPSRFSGSGSGQDYTLTISSLQPEDFATYYCLQYDEFPLTFGGGTKVEIK
For the molecule B4, the binding result in the assay with human CD33 Y49G, with human CD33 Y49I, with human CD33 K52Y, in the assay with human CD33 K52T and with human CD33 K52I was “no binding (tested: below 20%)” in each case.

B5: Refmab #3 (antibody, V domains shown)
VH: QVQLVQSGAEVKKPGSSVKVSCKASGYTFTDYNMHWVRQAPGQGLEWIGYIYPYNGGTGYNQKFKSKATITADESTNTAYMELSSLRSEDTAVYYCARGRPAMDYWGQGTLVTVSS
VL: DIQMTQSPSSLSASVGDRVTITCRASESVDNYGISFMNWFQQKPGKAPKLLIYAASNQGSGVPSRFSGSGSGTDFTLTISSLQPDDFATYYCQQSKEVPWTFGQGTKVEIK
notes: as for B1
Consider B5, for which the “Mean % WT Binding” value with human CD33 C41A came to 30.7 % WT.

B6: Refmab #6 (antibody, V domains shown)
VH: QVQLQQPGAEVVKPGASVKMSCKASGYTFTSYYIHWIKQTPGQGLEWVGVIYPGNDDISYNQKFQGKATLTADKSSTTAYMQLSSLTSEDSAVYYCAREVRLRYFDVWGQGTTVTVSS
VL: EIVLTQSPGSLAVSPGERVTMSCKSSQSVFFSSSQKNYLAWYQQIPGQSPRLLIYWASTRESGVPDRFTGSGSGTDFTLTISSVQPEDLAIYYCHQYLSSRTFGQGTKLEIK
notes: as for B3
For B6, the “Mean % WT Binding” value with human CD33 V214A was determined as 94.4 % WT binding; with human CD33 G218A, 98 % WT binding; with human CD33 T222A it was 92.2 % WT binding; in the assay with human CD33 P238A, 114 % WT binding; with human CD33 T240A, 97 % WT binding; with human CD33 D246A it was 106 % WT binding. Further, the “Mean % WT Binding” value was determined as 126 % WT binding in the assay with human CD33 Q251A; 96.8 % WT binding with human CD33 T253A; 96.8 % WT binding with human CD33 A255S; 98.1 % WT binding in the assay with human CD33 V257A; 86.4 % WT binding with human CD33 H259A; 103 % WT binding with human CD33 G264A. Further, the “Mean % WT Binding” value with human CD33 A265S was determined as 107 % WT binding; with human CD33 G266A it was 82.6 % WT binding; with human CD33 V267A it was 101 % WT binding; with human CD33 T268A, 100 % WT binding; with human CD33 A269S, 93.9 % WT binding.

B7: Refmab #6 (antibody, human IgG1, V domains shown)
VH: QVQLQQPGAEVVKPGASVKMSCKASGYTFTSYYIHWIKQTPGQGLEWVGVIYPGNDDISYNQKFQGKATLTADKSSTTAYMQLSSLTSEDSAVYYCAREVRLRYFDVWGQGTTVTVSS
VL: EIVLTQSPGSLAVSPGERVTMSCKSSQSVFFSSSQKNYLAWYQQIPGQSPRLLIYWASTRESGVPDRFTGSGSGTDFTLTISSVQPEDLAIYYCHQYLSSRTFGQGTKLEIK
As to B7, the binding result with human CD33 S131M, in the assay with human CD33 S131W, with human CD33 P132S, with human CD33 P132F, with human CD33 P132K and with human CD33 P132Q was “no binding (tested: below 20%)” in each case.
